Test system: neonatal mouse calvaria
Assay: Neonatal calvaria organ culture assay (histomorphometry)
Type: cell-based
Protocol: Applicants used mouse neonatal calvaria organ culture assay to examine possible roles for Ccdc80 in bone formation/resorption. Neonatal mouse calvaria were prepared from 4-day-old pups as described previously (Traianedes K et al., Endocrinology 139:3178-84 (1998); Mundy G et al., Science 286:1946-49 (1999)). Briefly, calvaria were excised and cut in half along the sagittal suture. Each half calvaria was placed with the concave surface downward on a stainless steel grid (Small Parts, Inc., Miami, Fla.) in a 12-well tissue culture dish (Becton Dickinson, Oxnard, Calif.). Calvaria were pre-incubated overnight in serum-free BGJ medium with 0.1% BSA. Each well contained 1 ml of BGJ medium. After pre-incubation, calvaria were incubated for 7 days in BGJ medium containing 1% FBS without or with test samples. Calvaria in 12-well plates were incubated in a humidified atmosphere of 95% air and 5% CO2. Fresh test samples were added at the time of medium change on day 4.
After organ culture, calvaria were fixed in 10% neutral phosphate-buffered formaldehyde at room temperature for 72 hours, then decalcified for 5-6 hours in 10% EDTA in PBS. Calvaria in each group were embedded in parallel in the same paraffin block, and 4 μm sections were stained with hematoxylin-eosin. Consistent bone areas (200 μm away from frontal sutures) were selected for histomorphometric analysis. In brief, a 200 μm square grid was placed on each calvaria, and the number of osteoblasts and total bone area were determined with the Osteomeasure System (Osteometrics Inc., Atlanta, Ga.). All cells on the bone surface were counted as osteoblasts.
For this experiment, calvaria were prepared from 4-day old neonatal pups. Calvaria then were incubated for 7 days without (Control), or with serial dilutions of FLAG-purified Ccdc80 protein as shown in FIG. 4. Medium was changed on day 4. After organ culture, calvaria were fixed in 10% neutral phosphate buffered formaldehyde, embedded in paraffin block, sectioned at 4 μm, and stained with hematoxylin and Eosin for histomorphoemetric analysis.

[1] = 1% FLAG-purified Ccdc80 protein, 7 days

B1: FLAG-purified Ccdc80 protein: C-terminally FLAG-tagged human Ccdc80 purified from conditioned medium using anti-FLAG M2 affinity beads (protein)
chain: EPHPHATIRGSHGGRKVPLVSPDSSRPARFLRHTGRSRGIERSTLEEPNLQPLQRRRSVPVLRLARPTEPPARSDINGAAVRPEQRPAARGSPREMIRDEGSSARSRMLRFPSGSSSPNILASFAGKNRVWVISAPHASEGYYRLMMSLLKDDVYCELAERHIQQIVLFHQAGEEGGKVRRITSEGQILEQPLDPSLIPKLMSFLKLEKGKFGMVLLKKTLQVEERYPYPVRLEAMYEVIDQGPIRRIEKIRQKGFVQKCKASGVEGQVVAEGNDGGGGAGRPSLGSEKKKEDPRRAQVPPTRESRVKVLRKLAATAPALPQPPSTPRATTLPPAPATTVTRSTSRAVTVAARPMTTTAFPTTQRPWTPSPSHRPPTTTEVITARRPSVSENLYPPSRKDQHRERPQTTRRPSKATSLESFTNAPPTTISEPSTRAAGPGRFRDNRMDRREHGHRDPNVVPGPPKPAKEKPPKKKAQDKILSNEYEEKYDLSRPTASQLEDELQVGNVPLKKAKESKKHEKLEKPEKEKKKKMKNENADKLLKSEKQMKKSEKKSKQEKEKSKKKKGGKTEQDGYQKPTNKHFTQSPKKSVADLLGSFEGKRRLLLITAPKAENNMYVQQRDEYLESFCKMATRKISVITIFGPVNNSTMKIDHFQLDNEKPMRVVDDEDLVDQRLISELRKEYGMTYNDFFMVLTDVDLRVKQYYEVPITMKSVFDLIDTFQSRIKDMEKQKKEGIVCKEDKKQSLENFLSRFRWRRRLLVISAPNDEDWAYSQQLSALSGQACNFGLRHITILKLLGVGEEVGGVLELFPINGSSVVEREDVPAHLVKDIRNYFQVSPEYFSMLLVGKDGNVKSWYPSPMWSMVIVYDLIDSMQLRRQEMAIQQSLGMRCPEDEYAGYGYHSYHQGYQDGYQDDYRHHESYHHGYPY
modifications: left off: small tags and cut ends
[1]
  bone resorption (histologically): enhanced
  number of osteoblasts: not significantly altered
  osteoblast activation: activated
1% FLAG-purified Ccdc80 protein, 7 days, P<0.0001
  increase in total bone area: 62%
Purified protein sample diluted as low as 0.01%, 7 days
  osteogenic activities: clearly observed
Summary statement
  number of osteoblasts (summary): unaltered
  osteoblast activation (summary): activated osteoblasts

Source: patent US20080241129A1, “ADIPOCYTE SECRETED PROTEIN CCDC80 IS A POTENT STIMULATOR OF BONE FORMATION” (Wyeth, priority 2007, published 2008)
